Experimental data from patent US20130052192A1 (Novo Nordisk, published 2013).

Biological target: T1, human CD62P (P-Selectin) on the surface of activated platelets (human, UniProt P16109 42-830)
T1 sequence: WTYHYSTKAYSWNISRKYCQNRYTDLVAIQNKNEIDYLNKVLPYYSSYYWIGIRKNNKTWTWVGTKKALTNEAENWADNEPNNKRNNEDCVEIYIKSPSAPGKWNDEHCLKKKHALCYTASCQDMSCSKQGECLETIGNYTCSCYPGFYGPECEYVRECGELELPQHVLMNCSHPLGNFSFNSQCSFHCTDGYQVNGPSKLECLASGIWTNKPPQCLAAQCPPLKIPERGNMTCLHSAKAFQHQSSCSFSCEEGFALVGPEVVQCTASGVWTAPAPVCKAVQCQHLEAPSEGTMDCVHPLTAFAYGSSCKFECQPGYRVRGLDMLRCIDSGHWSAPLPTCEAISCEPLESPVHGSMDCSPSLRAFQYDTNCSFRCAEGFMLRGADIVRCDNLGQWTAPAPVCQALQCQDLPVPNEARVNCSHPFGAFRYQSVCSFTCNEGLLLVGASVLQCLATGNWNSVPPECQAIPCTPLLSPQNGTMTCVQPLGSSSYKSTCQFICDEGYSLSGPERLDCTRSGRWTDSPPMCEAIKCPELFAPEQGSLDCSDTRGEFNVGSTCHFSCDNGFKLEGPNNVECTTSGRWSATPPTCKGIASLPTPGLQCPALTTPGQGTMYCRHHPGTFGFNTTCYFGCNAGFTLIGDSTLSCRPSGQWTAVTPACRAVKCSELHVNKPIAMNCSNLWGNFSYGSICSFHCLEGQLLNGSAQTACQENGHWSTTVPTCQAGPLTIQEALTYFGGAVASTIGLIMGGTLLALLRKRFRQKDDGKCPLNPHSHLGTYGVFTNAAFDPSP
Experiment: FACS on activated human platelets; sample incubated without Thrombin
Description: In short, blood from healthy donors was drawn by venipuncture of the antecubital vein. […] Platelet preparations were produced by making a standard Platelet Rich Plasma (PRP). Here, anti-coagulated whole blood was centrifuged (200 g for 15 minutes) without brake. […] Platelets were washed and prepared for staining. […] 50-100,000 cells were used per well.

B1: EP-FpA-PB1.3 mAb construct, incubated without Thrombin (uncleaved) (antibody, human IgG4, V domains shown)
VH: EAQLQQSGPELVEPGASVKVSCKASGYTFTNYVMHWVKQKPGQGLEWIGFINPSNDGPKYNERFKNKATLTSDKSSSTAYMELSSLTSEVSAVYFCARARPGFDWYFDVWGAGTTVTVSS
VL: DIVMTQSQKFMSTSVGDRVSVTCKASQNVATNVVWYQQRPGQSPKALIYTASYRFSGVPERFSGSGSGTDFTLTITNVQSEDLADYFCQQYNNYPYTFGGGTKVEIQR
notes: also called Sample 2
binding result: no binding
